Assay [1] addresses full length human Shh expressed on the cell surface (human) (UniProt Q15465). Nature of the assay: cell-based or functional assay.
In assay [2] the target is Shh-N in conditioned medium (human) (UniProt Q15465). As to the kind of experiment: cell-based or functional assay.

B1: rmHIP (protein, UniProt Q7TN16 18-678, looked up)
chain: FFEGDAKFGERNEGSGARRRRCLNGNPPKRLKRRDRRVMSQLELLSGGEILCGGFYPRVSCCLQSDSPGLGRLENKIFSATNNSECSRLLEEIQCAPCSPHSQSLFYTPERDVLDGDLALPLLCKDYCKEFFYTCRGHIPGLLQTTADEFCFYYARKDAGLCFPDFPRKQVRGPASNYLGQMEDYEKVGGISRKHKHNCLCVQEVMSGLRQPVSAVHSGDGSHRLFILEKEGYVKILTPEGELFKEPYLDIHKLVQSGIKGGDERGLLSLAFHPNYKKNGKLYVSYTTNQERWAIGPHDHILRVVEYTVSRKNPHQVDVRTARVFLEVAELHRKHLGGQLLFGPDGFLYIILGDGMITLDDMEEMDGLSDFTGSVLRLDVDTDMCNVPYSIPRSNPHFNSTNQPPEVFAHGLHDPGRCAVDRHPTDININLTILCSDSNGKNRSSARILQIIKGRDYESEPSLLEFKPFSNGPLVGGFVYRGCQSERLYGSYVFGDRNGNFLTLQQSPVTKQWQEKPLCLGASSSCRGYFSGHILGFGEDELGEVYILSSSKSMTQTHNGKLYKIVDPKRPLMPEECRVTVQPAQPLTSDCSRLCRNGYYTPTGKCCCSPGWEGDFCRIAKCEPACRHGGVCVRPNKCLCKKGYLGPQCEQVDRNVRRVTR
Regarding B1, in assay [1], the % Inhibition of Gli1 reporter, Co-Culture N = 1, 4 µg/ml was 124%; the % Inhibition of Gli1 reporter, Co-Culture N = 2, 4 µg/ml came out at 96%; the % Inhibition of Gli1 reporter, Co-Culture N = 3, 4 µg/ml is 121%. Besides, in assay [2], the % Inhibition of Gli1 reporter, Conditioned Media N = 1, 4 µg/ml amounted to 103% and the % Inhibition of Gli1 reporter, Conditioned Media N = 2, 4 µg/ml was determined as 112%.

The record behind these values is patent US20120328625A1.
